Measurements taken from patent US11111484B2, “Streptococcus bacteriophage lysins for detection and treatment of gram positive bacteria” (priority 2011, dated 2021).

Tests used:
S. agalactiae = assay: CFU studies, bactericidal effect; type: cell-based, Streptococcus agalactiae; conditions: 128 μg/ml PlySs2, 60 mins
Method: Log-phase bacteria were resuspended in buffer A to an OD600 of 0.1 (=0.5 McFarland≈10^8 CFU/ml). PlySs2 was added at 128 μg/ml to polypropylene microtiter plates (Costar) in triplicate for each test organism. Plates were sealed and incubated at 37° C. with shaking every 5 minutes for 1 hour. After 1 hour of incubation, cells were serially diluted in 10-fold increments and plated on BHI. Triplicate controls for each strain were performed with buffer B replacing PlySs2.

S. suis 10 (ST2) = assay: ΔPlySs1 OD600 lysis, 1 hr, optimal buffering conditions; type: cell-based, Streptococcus suis
Method: (§1) Truncated PlySs1(ΔPlySs1) lysin activity was determined against different cell types. Given the above experiments, the following optimal buffering conditions were employed for all further in vitro experiments with ΔPlySs1: 20 mM phosphate buffer, pH=7.8, 2 mM EDTA. A range of lysin concentrations, from 6.5-130 μg/ml, were introduced to live S. suis cells in this buffer. Three strains were considered particularly relevant: 7711, the serotype 7 strain that encodes PlySs1; S735, the serotype 2 reference strain; and 7997, a highly virulent serotype 9 strain. In terms of bacterial viability, only the highest PlySs1-concentration (130 μg/ml) led to a >90% decrease in CFUs for 7711, S735, and 7997 after 1 hr treatment (TABLE 2). The lysin was also tested against actively-dividing cells in broth culture (strain 7711) (FIG. 20).
(§2) ΔPlySs1 was further tested against a panel of 19 other S. suis strains of diverse serotypes, as well as other species of Gram-positive bacteria. The same lysin concentrations were used as above. For each dosage, the observed lysis values after 1 hr are listed in TABLE 3 and TABLE 4, and the information is summarized graphically in FIG. 21.

S. suis 6112 (ST1) = assay: as above; type: cell-based, Streptococcus suis
Method: as §1, §2

S. suis 7197 (ST7) = assay: as above; type: cell-based, Streptococcus suis
Method: as §1, §2

S. suis 8076 (ST9) = assay: as above; type: cell-based, Streptococcus suis
Method: as §1, §2

S. suis ST11 = assay: as above; type: cell-based, Streptococcus suis
Method: as §1, §2

S. suis ST13 = assay: as above; type: cell-based, Streptococcus suis
Method: as §1, §2

S. suis ST1 = assay: as above; type: cell-based, Streptococcus suis
Method: as §1, §2

S. suis ST3 = assay: as above; type: cell-based, Streptococcus suis
Method: as §1, §2

S. suis ST5 = assay: as above; type: cell-based, Streptococcus suis
Method: as §1, §2

S. suis ST6 = assay: as above; type: cell-based, Streptococcus suis
Method: as §1, §2

S. suis ST7 = assay: as above; type: cell-based, Streptococcus suis
Method: as §1, §2

S. suis ST8 = assay: as above; type: cell-based, Streptococcus suis
Method: as §1, §2

S. agalactiae type II = assay: as above; type: cell-based, Streptococcus agalactiae
S. dysgalactiae GGS = assay: as above; type: cell-based, Streptococcus dysgalactiae
L. monocytogenes HER1084 = assay: as above; type: cell-based, Listeria monocytogenes
S. sobrinus 6715 = assay: as above; type: cell-based, Streptococcus sobrinus
B. thuringiensis HD73 = assay: as above; type: cell-based, Bacillus thuringiensis
B. subtilis SL4 = assay: as above; type: cell-based, Bacillus subtilis

B1: PlySs2: Streptococcus suis prophage lysin, SEQ ID NO:3; N-terminal CHAP domain and C-terminal SH3-type 5 domain (protein, listed as Streptococcus suis)
chain: MTTVNEALNNVRAQVGSGVSVGNGECYALASWYERMISPDATVGLGAGVGWVSGAIGDTISAKNIGSSYNWQANGWTVSTSGPFKAGQIVTLGATPGNPYGHVVIVEAVDGDRLTILEQNYGGKRYPVRNYYSAASYRQQVVHYITPPGTVAQSAPNLAGSRSYRETGTMTVTVDALNVRRAPNTSGEIVAVYKRGESFDYDTVIIDVNGYVWVSYIGGSGKRNYVATGATKDGKRFGNAWGTFK
reduction in CFU counts (S. agalactiae): dramatically reduced

B2: ΔPlySs1: truncated PlySs1 lysin, SEQ ID NO:2, N-terminal 254 amino acids: only N-terminal enzymatic and central binding domains (protein, listed as Streptococcus suis)
chain: MTINLETSIRWMSDRVGKVSYSMDYRNGPNSYDCSSAVYYALMAGGAISAGWAVNTEYMHDWLIRNGYVLVAENKPFNAQRHDVCILGKRGYSSGAGGHVVIFVDNVNVIHCNYARNGISIDNYNQVHRGMYYYLYRPANQPSISNKSLDQLVKETLAGVHGNGDTRKASLGSQYEAVMAVINGKASASEKSDEELAREVLAGKHGAGEDRKRSLGPRYEPVQAKVNELLKAKEKPSETAKNEPQTVQFKEDGDL
1-hour treated/untreated OD600-ratio (S. suis 10 (ST2); 6.5 μg/ml): 0.29
1-hour treated/untreated OD600-ratio (S. suis 10 (ST2); 13 μg/ml): 0.18
1-hour treated/untreated OD600-ratio (S. suis 10 (ST2); 30 μg/ml): 0.10
1-hour treated/untreated OD600-ratio (S. suis 10 (ST2); 65 μg/ml): 0.05
1-hour treated/untreated OD600-ratio (S. suis 10 (ST2); 130 μg/ml): 0.02
1-hour treated/untreated OD600-ratio (S. suis 6112 (ST1); 6.5 μg/ml): 0.14
1-hour treated/untreated OD600-ratio (S. suis 6112 (ST1); 13 μg/ml): 0.11
1-hour treated/untreated OD600-ratio (S. suis 6112 (ST1); 30 μg/ml): 0.06
1-hour treated/untreated OD600-ratio (S. suis 6112 (ST1); 65 μg/ml): 0.02
1-hour treated/untreated OD600-ratio (S. suis 6112 (ST1); 130 μg/ml): 0.01
1-hour treated/untreated OD600-ratio (S. suis 7197 (ST7); 6.5 μg/ml): 0.64
1-hour treated/untreated OD600-ratio (S. suis 7197 (ST7); 13 μg/ml): 0.49
1-hour treated/untreated OD600-ratio (S. suis 7197 (ST7); 30 μg/ml): 0.39
1-hour treated/untreated OD600-ratio (S. suis 7197 (ST7); 65 μg/ml): 0.16
1-hour treated/untreated OD600-ratio (S. suis 7197 (ST7); 130 μg/ml): 0.07
1-hour treated/untreated OD600-ratio (S. suis 8076 (ST9); 6.5 μg/ml): 0.52
1-hour treated/untreated OD600-ratio (S. suis 8076 (ST9); 13 μg/ml): 0.40
1-hour treated/untreated OD600-ratio (S. suis 8076 (ST9); 30 μg/ml): 0.21
1-hour treated/untreated OD600-ratio (S. suis 8076 (ST9); 65 μg/ml): 0.14
1-hour treated/untreated OD600-ratio (S. suis 8076 (ST9); 130 μg/ml): 0.04
1-hour treated/untreated OD600-ratio (S. suis ST11; 6.5 μg/ml): 0.64
1-hour treated/untreated OD600-ratio (S. suis ST11; 13 μg/ml): 0.47
1-hour treated/untreated OD600-ratio (S. suis ST11; 30 μg/ml): 0.32
1-hour treated/untreated OD600-ratio (S. suis ST11; 65 μg/ml): 0.19
1-hour treated/untreated OD600-ratio (S. suis ST11; 130 μg/ml): 0.07
1-hour treated/untreated OD600-ratio (S. suis ST13; 6.5 μg/ml): 0.32
1-hour treated/untreated OD600-ratio (S. suis ST13; 13 μg/ml): 0.17
1-hour treated/untreated OD600-ratio (S. suis ST13; 30 μg/ml): 0.04
1-hour treated/untreated OD600-ratio (S. suis ST13; 65 μg/ml): 0.02
1-hour treated/untreated OD600-ratio (S. suis ST13; 130 μg/ml): 0.02
1-hour treated/untreated OD600-ratio (S. suis ST1; 6.5 μg/ml): 0.80
1-hour treated/untreated OD600-ratio (S. suis ST1; 13 μg/ml): 0.34
1-hour treated/untreated OD600-ratio (S. suis ST1; 30 μg/ml): 0.36
1-hour treated/untreated OD600-ratio (S. suis ST1; 65 μg/ml): 0.19
1-hour treated/untreated OD600-ratio (S. suis ST1; 130 μg/ml): 0.06
1-hour treated/untreated OD600-ratio (S. suis ST3; 6.5 μg/ml): 0.81
1-hour treated/untreated OD600-ratio (S. suis ST3; 13 μg/ml): 0.71
1-hour treated/untreated OD600-ratio (S. suis ST3; 30 μg/ml): 0.48
1-hour treated/untreated OD600-ratio (S. suis ST3; 65 μg/ml): 0.32
1-hour treated/untreated OD600-ratio (S. suis ST3; 130 μg/ml): 0.16
1-hour treated/untreated OD600-ratio (S. suis ST5; 6.5 μg/ml): 0.78
1-hour treated/untreated OD600-ratio (S. suis ST5; 13 μg/ml): 0.59
1-hour treated/untreated OD600-ratio (S. suis ST5; 30 μg/ml): 0.39
1-hour treated/untreated OD600-ratio (S. suis ST5; 65 μg/ml): 0.22
1-hour treated/untreated OD600-ratio (S. suis ST5; 130 μg/ml): 0.10
1-hour treated/untreated OD600-ratio (S. suis ST6; 6.5 μg/ml): 0.76
1-hour treated/untreated OD600-ratio (S. suis ST6; 13 μg/ml): 0.56
1-hour treated/untreated OD600-ratio (S. suis ST6; 30 μg/ml): 0.40
1-hour treated/untreated OD600-ratio (S. suis ST6; 65 μg/ml): 0.21
1-hour treated/untreated OD600-ratio (S. suis ST6; 130 μg/ml): 0.06
1-hour treated/untreated OD600-ratio (S. suis ST7; 6.5 μg/ml): 0.65
1-hour treated/untreated OD600-ratio (S. suis ST7; 13 μg/ml): 0.47
1-hour treated/untreated OD600-ratio (S. suis ST7; 30 μg/ml): 0.34
1-hour treated/untreated OD600-ratio (S. suis ST7; 65 μg/ml): 0.22
1-hour treated/untreated OD600-ratio (S. suis ST7; 130 μg/ml): 0.11
1-hour treated/untreated OD600-ratio (S. suis ST8; 6.5 μg/ml): 0.25
1-hour treated/untreated OD600-ratio (S. suis ST8; 13 μg/ml): 0.12
1-hour treated/untreated OD600-ratio (S. suis ST8; 30 μg/ml): 0.06
1-hour treated/untreated OD600-ratio (S. suis ST8; 65 μg/ml): 0.03
1-hour treated/untreated OD600-ratio (S. suis ST8; 130 μg/ml): 0.03
lysis value after 1 hr (treated/untreated OD600 ratio) (S. agalactiae type II; 6.5 μg/ml): 0.61
lysis value after 1 hr (treated/untreated OD600 ratio) (S. agalactiae type II; 13 μg/ml): 0.21
lysis value after 1 hr (treated/untreated OD600 ratio) (S. agalactiae type II; 30 μg/ml): 0.11
lysis value after 1 hr (treated/untreated OD600 ratio) (S. agalactiae type II; 65 μg/ml): 0.08
lysis value after 1 hr (treated/untreated OD600 ratio) (S. agalactiae type II; 130 μg/ml): 0.04
lysis value after 1 hr (treated/untreated OD600 ratio) (S. dysgalactiae GGS; 6.5 μg/ml): 0.30
lysis value after 1 hr (treated/untreated OD600 ratio) (S. dysgalactiae GGS; 13 μg/ml): 0.27
lysis value after 1 hr (treated/untreated OD600 ratio) (S. dysgalactiae GGS; 30 μg/ml): 0.15
lysis value after 1 hr (treated/untreated OD600 ratio) (S. dysgalactiae GGS; 65 μg/ml): 0.11
lysis value after 1 hr (treated/untreated OD600 ratio) (S. dysgalactiae GGS; 130 μg/ml): 0.14
lysis value after 1 hr (treated/untreated OD600 ratio) (L. monocytogenes HER1084; 6.5 μg/ml): 0.63
lysis value after 1 hr (treated/untreated OD600 ratio) (L. monocytogenes HER1084; 13 μg/ml): 0.52
lysis value after 1 hr (treated/untreated OD600 ratio) (L. monocytogenes HER1084; 30 μg/ml): 0.26
lysis value after 1 hr (treated/untreated OD600 ratio) (L. monocytogenes HER1084; 65 μg/ml): 0.14
lysis value after 1 hr (treated/untreated OD600 ratio) (L. monocytogenes HER1084; 130 μg/ml): 0.04
lysis value after 1 hr (treated/untreated OD600 ratio) (S. sobrinus 6715; 6.5 μg/ml): 0.64
lysis value after 1 hr (treated/untreated OD600 ratio) (S. sobrinus 6715; 13 μg/ml): 0.48
lysis value after 1 hr (treated/untreated OD600 ratio) (S. sobrinus 6715; 30 μg/ml): 0.39
lysis value after 1 hr (treated/untreated OD600 ratio) (S. sobrinus 6715; 65 μg/ml): 0.32
lysis value after 1 hr (treated/untreated OD600 ratio) (S. sobrinus 6715; 130 μg/ml): 0.23
lysis value after 1 hr (treated/untreated OD600 ratio) (B. thuringiensis HD73; 6.5 μg/ml): 0.99
lysis value after 1 hr (treated/untreated OD600 ratio) (B. thuringiensis HD73; 13 μg/ml): 0.98
lysis value after 1 hr (treated/untreated OD600 ratio) (B. thuringiensis HD73; 30 μg/ml): 0.93
lysis value after 1 hr (treated/untreated OD600 ratio) (B. thuringiensis HD73; 65 μg/ml): 0.86
lysis value after 1 hr (treated/untreated OD600 ratio) (B. thuringiensis HD73; 130 μg/ml): 0.60
lysis value after 1 hr (treated/untreated OD600 ratio) (B. subtilis SL4; 6.5 μg/ml): 1.07
lysis value after 1 hr (treated/untreated OD600 ratio) (B. subtilis SL4; 13 μg/ml): 1.05
lysis value after 1 hr (treated/untreated OD600 ratio) (B. subtilis SL4; 30 μg/ml): 1.04
lysis value after 1 hr (treated/untreated OD600 ratio) (B. subtilis SL4; 65 μg/ml): 1.03
lysis value after 1 hr (treated/untreated OD600 ratio) (B. subtilis SL4; 130 μg/ml): 0.96
